Data from a protein production outcome set (Wang et al. 2014).

Assay: label from the status in PepcDB records

Row | Sequence | protein production
1 | MPHNLFSLFSQPLKPPLFEPGEPRFWDDPHISKSMLEAHLNQTHDGASRRNAEIEKTIRHLITSGFLKTGDQVLDLGCGPGLYSSKLCFEGMKVTGIDLSRRSIDYARAQAERDGQNIDYIYTDFFNIDYKETFDAVLQVYGEICTFSDEKRDLLLNLVHRALKDNGIFIFDVSTRELRMREGLKNRWYFSEGGFWRPGKHLVLEEGFDYPENDTWLNQYIIVDEDGTVKVYRLWLHDYSFETISQTLENNGFRVEKAWNNLSGELYQKGGDWIAIAAKKV | failed
2 | MPHRKNTFSSWRSRLAQKAVHAGWAWVQRTGSVTAAHPGRFRFGALGTGTRLAFPLGTVFGEPWIQVGAHCIIGEQVTLTAGLMPDLDLGPEPILRIGDGVVLGRGSHVIADTTVTIGSDCYFGPYVYVTSTNHSYDDPHQPIGKQWPRMDPVEIGPGCWIGTGAVILPGARIGRNVVVAAGAVVRGAVPDHAVVAGAPARVVRRWTPAEGWQPPLRTPAPVPIPDGITPGQLRELSKLDDEAVARLAELDDPERAAGRLAEPAAEG | failed
3 | MPIDEWLVLNRIGIFENPSLRRYVSPFPPPELMGITSGLQSETGFAAHGADIYAALALASTIPITEYRHILDFGCGCGRLARMLKGHPHKISGCDIDLRHVKWIGQSLDFMNVKLSSVRPPIPFADDEMDAVISVSIFTHLTENSQDDFLAELFRVTRPGGTLFLTVHGAQALKRACHEQPIRHMLDMDEGRFRKAQQAFNQNKHGFVLQFGHLTTKPEKAFYTPRAIFRRIRDSFSRKTINMPFEYGIAFHPESYIREHWSKWFDILDYRHGAIHQFQDIVVLSPKK | failed
4 | MPIGSAMSRIATSSPGHDALSDRERAVAEKFAAGLTYREIGEALFIAPSTVRTHLASIYDKLGVRNKVALASHINGAIGAGMDGPPRLPGASPVLAIFPIECQTSEERWRRFADGLSSDITIDLARYADLPVIAFHTMKSLGSKPADFAADGKALGATYVVSGQLRADERRVRLSIELADADNGVSLWSERYDRQVEDIFALQDSLTETVINVIAGSYGALATVGRKAIRRKPPASLRAYDCYLLGVEQQDTFSRAGIAEAIRLFSRALELDPTLVRAWTALAYAYSIEGANGFGDDAQVSIENWRTAVENAILLDPMDSVACNCLGDLRGCLGDLEGAERAYRRAFEYGSNHADTLAMLAGSKALVAGDPAEAMPLIERAMHLNPLAPPWYFGMLGRILFTLGRHREAIAALCRSTLNSPNVLLFLALAHTSVGEAAEAARIEARLKTEFADFSVERFITCYPVTNPDAVHAIRHAAQQLARRD | failed
5 | MPIIELVILLACLVLLSNVLSHYLVAIPVSLIQVGLGLGVALLLNVQVKLQTDWFMLVFIAPMLYNDGREFPKQELWELRGAIFANAIVLVFITTILGGFLIHVLIPTIPLAVGIALAAILSPTDPIAVQSISEGVKLPKEILHLVSGESLINDASGLIGFKYALAAAVTGTFVLGEAVGDFFYISLVGLAVGLALITIIQLIRDVLRREGINDIVFNVVLQILTPFAIYFIAEEWFHASGVVAVVAAGVLSHLQNSHESEDAPELRLVTERVWNVVVYLLNGIVFLILGIELPAATQATIKGAHTNTFHAVFDVLIVWGILLLIRVAWTYAYMLFNWLRHHKKAKPSLRIAALSGLSGVRGAITMAGVFTIPTVVASGKAFPERALVLFIAAGVIIVSLVAAAAILPLMAAKSLPFVTRGSSPDEDDAVLAEGTDDGDDSSGQLPQLTYKQARIYILQLAIQNIEEHRRPANQRAAYDLILDQQFQIRRLEVASQTADELAPMLTDELELRLVALNGERAAVREMIANKQTSKLAGQVYLRRVDRREQRFLQATHRQGLPTLRSLRLLLTRAMQGIRLWLAPGDSEELRVALLDIQREASKAAIKALSQYLKQANVDEQQFDRQALYHLIVHYRNRIENAKNDHTLSRDDYEQQLHGLRIKSLGAERAGVQHLLESGQISLRTAAKLRQFINYSENLLMLNDIEADED | failed
6 | MPIIKTLTKATKLEKEKFTIPKSVQDAIPIQRIWPDGIFQVGSRFSKTFSFTDINYSIASKDDKTAMFLDYSELLNALDSGASAKITIHNRRIDKAQFEKSLLLPMREDGLDHFRREYNEMLLSKVTGTNNSVVQDRYITITVAKRNIDEARTYFSRVGTDLINHLSQLSSVGRELDAAARLQLFRDFFKGSEPAAFAFDLREHMKKGHSFKDWLCPDSMEFQKDHFRIDERWGRVLYLQDYATYIKDSMIAELCDMDRSLMLAIDVLPVPTDEAVREIQNKLLGVETNAANWQRKQNAANNFSAVLPYDMEQQRKETKEMLDDLTNRDQRMMFGLVTLVHLADTKEQLDSDTETILTVARKHLCQMSTLRWQQKDGLDTVLPYGLRKIHALRTLTTESTAVLIPFRAQEILQGGGIYYGQNAVSKNMIVADRRKLLNGNSFRLGVSGSGKSFSAKEEIVSIALSTDDDILILDPESEFGFLTEALGGEVIRVSASSDTHINALDMDKAYGDERNPLIEKSEFILSLFEQLVGAGGVSAKEKSILDRCTYDVYREYMANNYQGEVPTLKDLYQSLLKQPEPEARGLALSSELFITGSLNTFAQPTNVDTKARIIAYDIRELGEQLMPIGMLVTLDAIFNRVIQNWKKGKTTWVFADEFYLLFRYQYSADFFYKLWKRIRKYNGLVTGLTQNVEELLRSDTARLMLANSEFLILLNQSPTDRDELAGLLHISDTQLGYITNVSAGCGLIRCAGNIVPFENSFPRNTRLYQLMTTKPDEALRGVLEHHHHHH | failed
7 | MPILTISGSPSAPSRSARLLGHVRAQLERAGESADHLDLRALPADALLGAQTAHPAIAEALARVAAAGVVILATPVYQAAYSGLLKTFLDLLPQSGLRDKVVLPIATGGSLAHTLAIDYALRPVLSSLAARVILPGIFAADAQIGAADDGFAVDPALQQRLDDGIERVHQAIALARHPAVAQVIVASRRTVRSAFQAHANAQATDAQQRMRCPA | failed
8 | MPINQPSGQIKLTNVSLVRLKKARKRFEVACYQNKVQDYRKGIEKDLDEVLQIHQVFMNVSKGLVANKEDLQKCFGTTNVDDVIEEIMHKGEIQLSEKERQLMLNKVNNEMLTIVSAKCINPVSKKRYPPTMIHKALQELKFSPVINKPAKLQALEAIKLLVSKQIIPIVRAKMKVKVAISEPSRQPELIEKISKLIASSPGESTKPELDPWTCTGLIDPVNYRDLMTLCDKKGTVQVLDMAVIDNTTHN | failed
9 | MPINTPENISDNTSETSPELLHFNQLNLPPALLTRLDEIGYQQMTPVQSLSLPVILNNTDAVVRADTGSGKTTAFALTLLAKLEAKSFSPQALVLCPTRELAHQVADEVRKLAKSMLNIKILTLCGGEPSRIQTNSLEHGAHVLVGTPGRVLDHLEQRNVDLSMLTTLVLDEADRMLEMGFQDSLNAIVKHIPKTRQTLLFSATYPKNIAALAEQVTTKARNIEAIQEQAKPQIEQLFYAMNNEDSAQLVMNLLGDHQPENCLVFCNTKNEVKDIFNTLRANKFSVLALHGELEQKDRDQAIIQFSNGSARVLIATDVASRGLDIAELDLVISVNMAHDLDTHTHRIGRTGRAGKEGVAITLIAEKDDYKMRLLEDTFAEPIQVKPAPALSNNRPLKANMSTIQVSGGKKDKLRPGDIVGALTKDNVLSADDIGKIKLESTFGFVAVNSRLAKHALGLINNNKIKGKKFRAKVL | failed
10 | MPIRGFHYRGDEAIYPASVVKLFYLVAALEWLQQGMIQPSAELDRALRDMIVDSSNDATGYIVDLLSGTTSGPELGDGPFKTWQFQRNIVNRYYQSLMWPELQPINVNQKTWGDGPYGRERAFYGPEFENRNKLTTNATARLLHAIAGGVAVSPSASQRMLNLLNRPFDPRSLAEDPENQVTGFLGQDLPQGSQLWSKAGWMSRVRHDAAYLEIPGLPPHLLVAFTEGKEHANNEAILPFIAQQVRQQLQPALEHHHHHH | failed
11 | MPITSSSETFASFFNDWLCRHRQFVQQLAHLADETTIVTPIEEESLVSNFLSHYLQYYEEKSVAMSVAGDDIYDFFSPPWLSSYEKLILWIGGFKPGMVFKLITTSVNDLTSHQIDQLESIRLETKRRERDLMRRFALLQQSVGDPLLMVPFRRIGVLRLGEGEQPEMEDAMEVLKVEMIKAMKNADQLRCVTVGKVVEVLNPRQSIKLLRAAGEFYLRLRDLGV | failed
12 | MPKERVDVLAYKQGLFNTREQAKRGVMAGLVVNVINGERYDKPGEKIDEATELKLKGDKLKYVSRGGLKLEKALKVFVISVDGQITLDIGASTGGFTDVMLQNGAQLVYAVDVGTNQLVWKLRQDERVCSMEQYNFRYAEPSDFERGQPTFASIDVSFISLNLILPALSKILTDGGQVVALIKPQFEAGREQIGKHGIVKDKSVHETVLETVTTFATNYGFTVKELDFSPIQGGHGNIEFLAYLEKSAQAQNQVLTKIKSIVEQAHKEFKKNEET | not failed
13 | MPKKPLIDQLHHEDSWRLFRILAEFVEGFETLSELQVPLVSVFGSARFGEGHPAYEAGYRLGRALAEAGFGVVTGGGPGVMEAVNRGAYEAGGVSVGLNIELPHEQKPNPYQTHALSLRYFFVRKVLFVRYAVGFVFLPGGFGTLDELSEVLVLLQTEKVHRFPVFLLDRGYWEGLVRWLAFLRDQKAVGPEDLQLFRLTDEPEEVVQALKAEAPPR | not failed
14 | MPKLPLLLSFPLLFFASFAYADEDFVTCYSVLKFINANDGSRLHSHDVKYGSGSGQQSVTAVKNSDDINSHWQIFPALNAKCNRGDAIKCGDKIRLKHLTTGTFLHSHHFTAPLSKQHQEVSAFGSEAESDTGDDWTVICNGDEWLESEQFKLRHAVTGSYLSLSGQQFGRPIHGQREVVGTDSITGGSAWKVAEGIYIKHQQKDL | not failed
15 | MPKLSLIIATFNDAIGLARCLDSIEQQTVRADCEVLVFDNASSDGTVELLQGWSDRLTYWESERDRGIYHAWNKAIARASGDYVAFVGADDYYASPTALQQLLELTVGQPDLVSGRNAYYSPEGKFLRTWGYAWDWQRMRESMILSHPGLLMRRSLFDRIGLFDERFRICGDYDWLLRLPPDLKAVHTNQVILCLSMGGLSNTRISRVFAETFQAQRRQPDLGRWRSGVYWLINWLKFGRRKLIGLA | failed
16 | MPKLSVIVPTFNRQVLLEKAIKSIQNQDFKDLEIIVSDDNSSDDTKSVVQNLQKDDDRIKYFLNQNYKQGPNGNKNNGLDQASGEFVTFLDDDDELLSGALSTLMQKANEGYAHVFGNCLIEKEGNLSKEFSGKGLEKDSEISKKDFLMAKFSGEFFSVFKKSLLENKRFNEEFYGNEATLWVNLYKEKSFYIHKAFRIYRIFRQDSVTLGASKNAYRVYLGYLELAKILENELRMSKDKDYKKTCASYYKMAAYYAKLAKNYKALYKCLFKSLSIKINAPALILLILSIIPNNMIEKLSKIRVALCKN | failed
17 | MPKTKLTSPPFKILKCTECDACINVPSILQSNEQAECPRCHHLLASGTRWSLHRCAMIALSILILMPFSLNYPLLSLHLLGIKIDASIWDGIWKMAVGGYEYTAFMIFICAVVMPITFALLVIMLWLAKIFQIKPRSVLLFLGYIKAWVMFDVYLVALGVTIFKVREYATLEINIYLIPFIFTALLTTLLFIKLNLSALWQEFYPECTSVYTKQAVELCPACHYTFTQKSIHYDHQQKICCPRCQSPLNTSDKLKLQATWATLIAGIIMLFPANLLPISGIYLTGALSEDTLISGVISFVKSGSYFVAFVVFFASIFVPISKIFIMLYLLACVHFKWQHSIKWQMRLLHLVHFVGRWSMLDLFVLALMMSLVTRGEIINFTVGPGAFYFGAAVFCTMLSTSQFDSKLIWKIYDREK | failed
18 | MPKVNLYATFRDLTGKSQLELPGATVGEVLENLVRAYPALKEELFEGEGLAERVSVFLEGRDVRYLQGLSTPLSPGATLDLFPPVAGGGFERTFGAFPPWLLERYLEEWGGTREGEGVYRLPGAVVRFREVEPLKVGSLSIPQLRVEVEGEEAERWFERIAFAASRGGG | not failed
19 | MPLDAPPLLPSADSDSTVSILQAKGDAPPAAATAAVGWPLLALTTWFGSGLIPLAPGTMGSIAALPFAWAIAWTWGPWALAPAAALVFVIGTLAAEAHVRRSGEKDPQRIVIDEVAGQWLTLAVAPLDPLAYGVGLVLFRICDITKPWPACWADRSVPGGFGIMLDDGFAAVYSTCMMALYVHYFM | failed
